We go through three substances from US6413750B1, “(R)-specific alcohol dehydrogenases from lactobacillus with improved catalytic activity using an NAD+ substrate” (Forschungszentrum Jülich GmbH, priority 1998, dated 2002).

Values joined by “and” are separate entries in the source; they are usually repeats but may differ in a detail not shown here. Equal values may be shown once.

A short description of series [1]: Kinetic data for the reduced coenzyme NADH (reduction of acetophenone). The class given is biochemical, Lactobacillus brevis. The protocol: (§1) In this N-terminal sequence certain basicity-relevant amino acids were exchanged by established genetic engineering devices and the changes in the acceptance of NAD^+ were determined basically with two values, the KM value and the kcat value. The KM value (Michaelis-Menten-constant [Mol/L]) can be considered to be a measure for the affinity of the co-enzyme to the enzyme. Preferably, the KM value is as small as possible. The kcat value (Mol formed product/mol enzyme×sec) is a measure for the conversion, it should be as high as possible. A combined value, which takes both values into consideration is the quotient kcat/KM. This should be preferably≧20 for obtaining an enzyme suitable for preparative purposes.
(§2) The successive changes of the mutated enzymes were proven by the determination of the kinetic parameters for the co-enzyme NAD^+, NAPD^+, NADH and NADPH by means of the corresponding kinetic parameters for the ketone substrate (acetophenone) or, respectively, by the oxidation reaction for the alcohol (phenylethanol). Furthermore, maintenance of the enantioselectivety was examined using the example of reduction of acetophenon. In addition, temperature-optima and stability, pH optima and stability and the iso-electric point were determined and compared with the corresponding data for the non-mutated wild-type enzyme.

Series [2] is described as follows: Kinetic data for the oxidized coenzyme NAD+ (oxidation of phenylethanol). The class given is biochemical, Lactobacillus brevis. Particulars: for Kcat value / Km: coenzyme NAD+. The protocol: as §1, §2
Series [3] in a line: Kinetic data for the reduced coenzyme NADPH (reduction of acetophenone). The format is biochemical, Lactobacillus brevis. The protocol: as §1, §2
Series [4] is described as follows: Isoelectric point by isoelectric focussing. Particulars: pH. The format is physicochemical, Lactobacillus brevis. As for the experimental part: The isoelectric point (IP) is determined by isoelectric focussing (IEF) to be at pH 4.28. This is noteworthy particularly in comparison with the mutant 2 (see example 4). With the mutant 2, the IP is determined at 4.65 despite the fact that, in each of the two mutants, the same type of aminoacid (lysine) was exchanged; in mutant 1, it was the lysine-45 (to isoleucine) and in mutant 2, it was the lysine-48 (to methionine).

Series [5] can be described thus: Kinetic data for the oxidized coenzyme NADP+ (oxidation of phenylethanol). The format is biochemical, Lactobacillus brevis. The protocol:
as §1, §2

Series [6] in a line: Batchwise reduction of acetophenone with coenzyme regeneration, enantioselectivity by gas chromatography. The class given is biochemical, Lactobacillus brevis. As for the experimental part:
In this case, 960 μl triethanolamine buffer, 50 mM, pH 7.0 with 11 mM acetophenon, 10 μl magnesium chloride (100 mM start solution); 25 μl NADP^+ (10 mM start solution), 9.4μl isopropanol, and 1 U alcohol dehydrogenase were used.

The nature of series [7]: Temperature stability (residual activity after incubation at various temperatures). The format is physicochemical, Lactobacillus brevis.
Series [8] in a line: Standard enzyme test with crude extract (acetophenone reduction / phenyl ethanol oxidation). The format is biochemical, Lactobacillus brevis. The protocol: In the standard enzyme test for reduction of acetophenone, with NADPH 0.032 U/mg (0.318 U/ml, 9.75 mg protein/ml) and with NADH 0.47 U/mg (4.61 U/ml; 9.75 mg protein/ml) were measured. In the reverse reaction (alcohol-oxidation) with phenyl ethanol, with NAD^+ a specific activity of 1.1 U/mg (10.8 U/ml); 9.75 protein/ml) were measured.

Series [9] can be described thus: pH optimum of enzyme activity. The format is biochemical, Lactobacillus brevis. Particulars: for activity at pH 8.0 compared with optimum: oxidative direction. The protocol: For determining the optimal pH value, the following buffers were used: pH 4.5=Na-acetate; pH 5.0 and 5.5=Na-acetate; pH 6.0 and 6.5=Kpi or MES; pH 7.0 and 7.5=Kpi or TEA; pH 8.0 and 8.6=Tris; pH 9.0=Bicine. All buffers were used in a concentration of 100 mM. For the determination of the reductive reaction 10 mM acetophenon was added. The concentrations of NADP/NAD were each 2 mM. The concentration of NADH/NADPH was each 0.25 mM. For measurement, 970 μl of the respective buffer solution, which already included substrate at the desired concentration, was mixed with 20 μl of the start solution with the desired co-enzyme. The reaction was started with 10 μl enzyme. the dilution factor depended on the activity, it was chosen in the range of 1 to 3 U/ml.

Series [10] can be described thus: pH stability (residual activity after incubation at various pH values). The class given is physicochemical, Lactobacillus brevis. As for the experimental part:
The pH stability is expressed as residual activity after a 25 hour incubation period at various pH values, the same buffers were used as for the determination of the pH optima. 45 μl of the respective buffer were mixed with 5 μl of the enzyme solution and incubated at room temperature. Samples were taken after 30 min, 60 min., 6 hours and 25 hours.

The nature of series [11]: Temperature optimum of enzyme activity. The format is biochemical, Lactobacillus brevis. The protocol:
The optimal temperature was determined for reductive reactions at pH 7.0 with the two coenzymes NADH and NADPH to be 55° C. in both cases. The temperature stability was determined as residual activity after 25 h incubation at various temperatures. At 37° C., still 95% reactivity was obtained; at 42° C. still 34%.

The mark [12] stands for this setting: oxidation of phenyl ethanol with NAD+.
[13] abbreviates: reduction of acetophenone with NADH.
The mark [14] stands for this setting: reduction of acetophenone with NADPH.

For the substance “mutant 1/1: L. brevis ADH mutant with exchanges A9G, R38L, K45M (SEQ ID NO 17) (SNRLDGKVGIITGGTLGIGLAIATKFVEEGAKVMITGLHSDVGEMAAKSV; OTHER INFORMATION: mutant 1/1)”, the Kcat value in series [1] was 10.3 s⁻¹; in series [2], 33.3 s⁻¹; in series [3] it was 166.4 s⁻¹; in series [5], 33.3 s⁻¹. The Km in series [1] was 188 µM; in [2], 500 µM and 502 µM; in series [3], 352 µM; in series [5], 502 µM. For the same substance, in [2] (kcat/KM NAD+ as percent of kcat/KM NADP+), the “selectivity (kcat/KM) for NAD+ in comparison with the value for NADP+” value is 100%. The isoelectric point in [4] is listed as 4.85. In [6], the “enantioselectivity: isomer of phenylethanol formed” value was “only the (R) isomere of phenyl ethanol”. Also, the residual activity in series [7] (25 h incubation at 25° C.) is recorded as 100%; in series [7] (25 h incubation at 30° C.), 59%.
As to “mutant 2/3: L. brevis ADH mutant with exchanges A9G, G37D, R38L, K48M (SEQ ID NO 20)”, the activity is 10.8 U/ml in series [8] (setting [12]), “no activity” in series [8] (oxidation of phenyl ethanol with NADP+), 4.61 U/ml in series [8] (setting [13]) and 0.318 U/ml in series [8] (setting [14]). The specific activity in series [8] (setting [12]) was 1.1 U/mg; in [8] (setting [13]), 0.47 U/mg; in series [8] (setting [14]), 0.032 U/mg.
For “mutant 2/2: L. brevis ADH mutant with exchanges A9G, R38L, H39L, K48M (SEQ ID NO 19) (SNRLDGKVGIITGGTLGIGLAIATKFVEEGAKVMITGLLSDVGEKAAMSV; OTHER INFORMATION: mutant 2/2)”, the Kcat value was determined as 33.6 s⁻¹ in series [1], 23.2 s⁻¹ in [2], 101.1 s⁻¹ in [3] and 30.8 s⁻¹ in [5]. The Michaelis-Menten constant (Km) in series [1] is ~70 µM and 70 µM; in [2], 960 µM and 955 µM; in series [3], 370 µM; in [5], 143 µM. Also, the “activity at pH 8.0 compared with optimum” value came out at 61% in [9] (NAD+) and 77% in [9] (NADP+). The “activity at pH 7.0 compared with optimum” value in [9] (reduction of acetophenone with NADH, pH 7.0) came to 6%. Also, the isoelectric point entry in [4] is “about 4.47”. The residual activity came to 100% in series [10] (6 h storage at pH 7.0), 58% in series [10] (6 h storage at pH 8.5), 67% in series [7] (storage 6 h at 30° C.) and 7% in [7] (storage 6 h at 37° C.). Besides, the “activity at 60° C. relative to optimum” value in series [11] (NADH, 60° C.) was found to be 70%. The “activity at 50° C. relative to optimum” value in series [11] (NADPH, measured at 50° C.) was 95%. Besides, the “enantioselectivity: isomer of phenylethanol formed” value in [6] was “the (R) isomere of phenylethanol only”.
